Data on one molecule can be found in PMC8537613 (2021).

The experiment has as its target m102.4. The experiment in a line: ELISA. In general terms: In an ELISA, binding on a coated surface is turned into a signal by an enzyme label.

One may read the Kd as the constant that tells how readily two partners part at equilibrium. The low end stands for tighter binding, the high end for weaker binding.

B1: NiV sG (domain or fragment)
chain: QNYTRSTDNQAVIKDALQGIQQQIKGLADKIGTEIGPKVSLIDTSSTITIPANIGLLGSKISQSTASINENVNEKCKFTLPPLKIHECNISCPNPLPFREYRPQTEGVSNLVGLPNNICLQKTSNQILKPKLISYTLPVVGQSGTCITDPLLAMDEGYFAYSHLERIGSCSRGVSKQRIIGVGEVLDRGDEVPSLFMTNVWTPPNPNTVYHCSAVYNNEFYYVLCAVSTVGDPILNSTYWSGSLMMTRLAVKPKSNGGGYNQHQLALRSIEKGRYDKVMPYGPSGIKQGDTLYFPAVGFLVRTEFKYNDSNCPITKCQYSKPENCRLSMGIRPNSHYILRSGLLKYNLSDGENPKVVFIEISDQRLSIGSPSKIYDSLGQPVFYQASFSWDTMIKFGDVLTVNPLVVNWRNNTVISRPGQSQCPRFNTCPEICWEGVYNDAFLIDRINWISAGVFLDSNQTAENPVFTVFKDNEILYRAQLASEDTNAQKTITNCFLLKNKIWCISLVEIYDTGDNVIRPKLFAVKIPEQCT
Regarding B1, the Kd worked out at 0.15 nM.
